The source of these data is US8444963B2 (priority 2006, dated 2013).

The subject of data set [1] is syngeneic CT26 colorectal tumors. As to the kind of experiment: CT26 tumors in BALB/c mice treated with C. novyi-NT spores and free or liposomal drugs. The note with it: 300 million spores i.v., drug 10 mg/kg single i.v. dose 16 h later. Format: in vivo, mouse. As to the method:
Animal models. […] Tumor volume was calculated as length×width^2×0.5.

Data set [2] is described as follows: Liposome-disruption assay (doxorubicin release from Doxil). It counts as biochemical. The note with it: lysates of IPTG-induced E. coli incubated with liposomal doxorubicin. As to the method:
Liposome-Disruption Assay. Samples were mixed with DOXIL™ liposomal doxorubicin (100 μl sample+5 μl DOXIL™ liposomal doxorubicin in a 96-well plate or 50 μl sample+2 μl DOXIL™ in a 384-well plate). Increase in fluorescence caused by the dequenching of released doxorubicin was kinetically measured over 30-60 minutes using excitation at 470 nm and emission at 590 nm (5). All measurements were performed at 37° C. in a fluorescence plate reader. Liposome-disrupting activity was defined as the maximum slope of the release curve.
Lipase Panel Experiment. Purified NT01CX2047 enzyme and nine other purified lipases were dissolved in 100 mM Tris-HCl, pH 7.5 to a concentration of 1 mg/ml. Fifty μl of Assay Buffer (100 mM Tris-HCl pH 7.5+0.125M NaCl) was pipetted into 384-well plates, followed by 2 μl of the relevant lipase and 1 μl of DOXIL. Samples were assayed in duplicate for liposome-disrupting activity as described above.
To test the liposome-disrupting activity of the lysates described above, we incubated them with liposomal doxorubicin. […] When this strain was cultured without selective antibiotics until the bacteria lost the expression vector by random segregation, the liposome-disrupting activity was lost (FIG. 4C). Moreover, the cells that had lost the plasmid were able to grow as robustly as the parental E. coli and the S127X mutant.

The nature of data set [3]: Lipase assay of E. coli lysates. Format: biochemical. The note with it: lysates of IPTG-induced E. coli clones. An excerpt: FIG. 4A-4D. Functional analysis of liposomase. Plasmids carrying the wt or mutant forms of the NT01CX2047 gene were introduced into E. coli. “Cured” bacteria represent those originally containing the wt gene and grown in the absence of selective antibiotics until the plasmid was lost. Cellular lysates from three independent clones of each bacterial strain were generated after induction of expression by IPTG and used for the following: (FIG. 4A) Western blotting with an antibody to oligohistidine confirmed the presence of similar amounts of wt and mutant proteins in the bacteria. (FIG. 4B) Lipase activity was analyzed using the fluorescent lipase substrate, 1,2-dioleoyl-3-pyrenedecanoyl-rac-glycerol. (FIG. 4C) Liposome-disrupting activity was assessed using Doxil. (FIG. 4D) Liposome-disrupting activity of lipases purified from ten different organisms were assessed using Doxil. Means and standard deviations of data from at least two independent experiments are shown in (FIG. 4B) to (FIG. 4D).
Protein Expression. […]
Lipase Assay. […] Increase in fluorescence caused by catalytic release of pyrenedecanoic acid was kinetically measured over 2 hours using excitation at 320 nm and emission at 405 nm. All measurements were performed at 37° C. in a FluoStar Galaxy fluorescence plate reader. […]

The test system of a further data set is E. coli. Put plainly: Growth of E. coli expressing NT01CX2047 forms after IPTG induction. Format: cell-based. The note with it: after induction by IPTG. As to the method: Protein Expression. The expression vectors described above were transformed by heat shock into the Rosetta-gami(DE3)pLysS strain of E. coli (Novagen, Madison, Wis.). Three clones per expression construct were picked and each was cultured in 20 ml HyperBroth (AthenaES, Baltimore, Md.) under antibiotic selection (100 μg/ml ampicillin+34 μg/ml chloramphenicol) at room temperature. As a negative control, bacteria carrying the pLip plasmid were “cured” of their plasmid through growth in the absence of selective antibiotics. Loss of plasmid was verified by PCR. Expression was induced using IPTG for 1 hour, reaching an OD600˜0.2, after which the bacteria were pelleted by centrifugation and resuspended in 100 mM Tris-HCl, pH 7.5. Lysates were prepared by sonication in a Bioruptor sonicating bath (Diagenode, Belgium) and centrifugation at ˜14,000 g was performed to remove insoluble matter. […]
To examine the properties of the protein encoded by NT01CX2047, we cloned its ORF into an inducible expression vector which was then introduced into a genetically modified E. coli strain that permitted expression of C. novyi-NT genes (which have a codon usage very different than that of E. coli). […] Lysates from these cells were tested for lipase activity as measured by hydrolysis of 1,2-dioleoyl-3-pyrenedecanoyl-rac-glycerol. […]

Residue numbers refer to the chain shown, from its start. Numbers in names are those of the source.

On to `COc1cccc2c1C(=O)c1c(O)c3c(c(O)c1C2=O)C[C@@](O)(C(=O)CO)C[C@@H]3O[C@H]1C[C@H](N)[C@H](O)[C@H](C)O1` [doxorubicin], for which, in data set [1], the “tumor response (tumor volume)” value is recorded as “Neither doxorubicin nor Doxil alone resulted in prolonged therapeutic effects”.

B1: NT01CX2047: C. novyi-NT extracellular lipase, the liposome-disrupting factor (SEQ ID NO: 1), expressed in E. coli with oligohistidine tag (protein, listed as Clostridium novyi)
chain: MQSKLKKFISTISVSLFTLASVLTFSMAKPVNAFAKENQKVSQNNYPIILCHGCNGWGRTENFGTVAFGARYYWGGNVDLQQKLIENGFTTYTAAVGPLSSNWDRACELYAQIKGGRVDYGEAHAKKHGHSRYGRYYRGFYPEWGTKDENGNIRKVHLIGHSQGGQTIRMLTTLLGQGKQEEISATGENTNELFKGGHDWVSGLITLASPHDGTTLADMKGTDAAAAIGIGAVGSMLGNISNSDIIFDLKVDQWGLKRKPSESFISYFNRCATSKMWNSKDICSVDLSTNGAVEQNKWVKAQPNVYYFSWACCGTIRNPISIFGHHMASPIRMSDKGLYNVQWALQAQLMGTYSRNNPRRAIPVIDSKWWPNDGYVNTISENGPKAGSTDEIVNYNGTPQIGKWNFMGVKDMDHEDIIGRHWNGAPNFFIDMAQMLRNLPVTE
modifications: oligohistidine tag
For the molecule B1, the liposome-disrupting activity result in data set [2] is listed as “potent activity”. In data set [3], the lipase activity entry is “exhibited lipase activity”. Also, in the data set with E. coli, the “growth of the expressing E. coli cells (apparent toxicity of gene product)” value is “grew poorly”.

B2: S127G (protein, listed as Clostridium novyi)
chain: B1 chain with S162G
In the case of B2, the liposome-disrupting activity entry in data set [2] is reported as “retained substantial liposome-disrupting activity”. Also, the lipase activity result in data set [3] is given as “devoid of lipase activity”. The “growth of the expressing E. coli cells (apparent toxicity of gene product)” value with E. coli is listed as “same poor growth as wild-type NT01CX2047”.
